These are literature values, as cited in paper PMC2964873.

The data set concerns the target plectin-1 95-117 (Homo sapiens) (UniProt Q15149).
Sequence of UniProt Q15149 (Q15149 95-117): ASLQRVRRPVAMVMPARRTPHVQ

For Siah (from UniProt Q8IUQ4), the Kd – broadly, the constant that tells how readily two partners part at equilibrium – is 29 nM.
